Source: US20240209382A1 (PURDUE RESEARCH FOUNDATION, published 2024)
Numbering of substitutions follows the chain as printed. Names and notes keep the numbering of the source.

Columns and labels:
[1] = biological target: the molecule itself; test: TEM of capsid self-assembly, E. coli, transcript with TMV OAS (only disks without OAS)
[2] = biological target: the molecule itself; test: TEM of capsid self-assembly

B1: wild-type Barley stripe mosaic virus coat protein (BSMV-CP) (other)
chain: MPNVSLTAKGGGHYIEDQWDTQVVEAGVFDDWWVHVEAWNKFLDNLRGINFSVASSRSQVAEYLAALDRDLPADVDRRFAGARGQIGSPNYLPAPKFFRLDKRTIAELTRLSRLTDQPHNNRDIELNRAKRATTNPSPPAQAPSENLTLRDVQPLKDSALHYQYVLIDLQSARLPVYTRKTFERELALEWIIPDAEEA
notes: Capsid subunit expressed in E. coli; many copies assemble into disks or rod-shaped VLPs; Rods of the wild type were obtained from the transcript carrying the TMV origin of assembly (RNA); also called BSMV capsid protein; wildtype BSMV VLPs
[1]
  binding result: binds

B2: BSMV-CP having point mutations at both residues E62Q and D101N (other)
chain: B1 chain with E62Q, D101N
notes: Capsid subunit expressed in E. coli; self-assembles into rod-shaped VLPs; also called E62Q/D101N; BSMV-CP-E62Q/D101N
[2]
  binding result: binds

B3: BSMV-CP having a point mutation at residue D101R (other)
chain: B1 chain with D101R
notes: Capsid subunit expressed in E. coli; self-assembles into rod-shaped VLPs; also called BSMV-D101R; BSMV-D101R VLPs
[2]
  binding result: binds

B4: BSMV-CP having a point mutation at residue E62Q (other)
chain: B1 chain with E62Q
notes: Capsid subunit expressed in E. coli; self-assembles into rod-shaped VLPs; also called BSMV-CP-E62Q
[2]
  binding result: binds

B5: BSMV-CP having a point mutation at residue D101N (other)
chain: B1 chain with D101N
notes: Capsid subunit expressed in E. coli; self-assembles into rod-shaped VLPs; also called BSMV-CP-D101N
[2]
  binding result: binds
